T1: TetR-EYFP-ZNF518B^344–1074 (human, UniProt Q9C0D4 344-1074)
T1 sequence: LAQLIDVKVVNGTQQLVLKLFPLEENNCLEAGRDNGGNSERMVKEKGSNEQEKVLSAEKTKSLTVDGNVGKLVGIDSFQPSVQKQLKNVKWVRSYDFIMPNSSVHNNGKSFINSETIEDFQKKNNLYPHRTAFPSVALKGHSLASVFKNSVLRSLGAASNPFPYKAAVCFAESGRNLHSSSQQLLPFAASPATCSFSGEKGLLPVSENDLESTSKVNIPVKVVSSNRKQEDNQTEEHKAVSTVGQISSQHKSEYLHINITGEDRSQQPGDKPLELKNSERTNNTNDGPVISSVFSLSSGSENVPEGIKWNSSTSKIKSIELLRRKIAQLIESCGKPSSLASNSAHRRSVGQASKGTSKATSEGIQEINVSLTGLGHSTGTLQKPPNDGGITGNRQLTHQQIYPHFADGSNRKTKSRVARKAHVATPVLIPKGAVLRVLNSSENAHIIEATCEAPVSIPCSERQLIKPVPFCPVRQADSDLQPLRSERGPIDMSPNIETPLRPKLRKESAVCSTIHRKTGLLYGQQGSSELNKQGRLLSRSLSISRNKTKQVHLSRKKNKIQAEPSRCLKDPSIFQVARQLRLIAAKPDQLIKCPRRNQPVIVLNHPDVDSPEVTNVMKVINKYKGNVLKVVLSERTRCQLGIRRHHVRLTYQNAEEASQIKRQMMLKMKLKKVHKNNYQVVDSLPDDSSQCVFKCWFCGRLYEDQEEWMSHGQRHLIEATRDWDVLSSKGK

T2: TetR-EYFP-ZNF518B^770–987 (human, UniProt Q9C0D4 770-987)
T2 sequence: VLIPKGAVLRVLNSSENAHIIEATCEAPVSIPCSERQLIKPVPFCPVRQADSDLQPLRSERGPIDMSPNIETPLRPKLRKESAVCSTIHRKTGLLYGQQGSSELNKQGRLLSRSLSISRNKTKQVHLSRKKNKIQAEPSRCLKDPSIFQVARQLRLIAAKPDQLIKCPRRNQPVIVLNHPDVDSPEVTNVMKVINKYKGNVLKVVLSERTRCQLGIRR

T3: TetR-EYFP-ZNF518B^878–1074 (human, UniProt Q9C0D4 878-1074)
T3 sequence: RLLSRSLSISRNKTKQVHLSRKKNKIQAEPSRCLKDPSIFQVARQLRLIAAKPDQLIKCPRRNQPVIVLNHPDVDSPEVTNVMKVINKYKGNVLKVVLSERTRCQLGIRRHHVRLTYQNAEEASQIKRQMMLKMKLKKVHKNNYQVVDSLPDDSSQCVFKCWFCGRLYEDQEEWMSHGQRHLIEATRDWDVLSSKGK

T4: TetR-EYFP-ZNF518B^WT (human, UniProt Q9C0D4 1-1074)
T4 sequence: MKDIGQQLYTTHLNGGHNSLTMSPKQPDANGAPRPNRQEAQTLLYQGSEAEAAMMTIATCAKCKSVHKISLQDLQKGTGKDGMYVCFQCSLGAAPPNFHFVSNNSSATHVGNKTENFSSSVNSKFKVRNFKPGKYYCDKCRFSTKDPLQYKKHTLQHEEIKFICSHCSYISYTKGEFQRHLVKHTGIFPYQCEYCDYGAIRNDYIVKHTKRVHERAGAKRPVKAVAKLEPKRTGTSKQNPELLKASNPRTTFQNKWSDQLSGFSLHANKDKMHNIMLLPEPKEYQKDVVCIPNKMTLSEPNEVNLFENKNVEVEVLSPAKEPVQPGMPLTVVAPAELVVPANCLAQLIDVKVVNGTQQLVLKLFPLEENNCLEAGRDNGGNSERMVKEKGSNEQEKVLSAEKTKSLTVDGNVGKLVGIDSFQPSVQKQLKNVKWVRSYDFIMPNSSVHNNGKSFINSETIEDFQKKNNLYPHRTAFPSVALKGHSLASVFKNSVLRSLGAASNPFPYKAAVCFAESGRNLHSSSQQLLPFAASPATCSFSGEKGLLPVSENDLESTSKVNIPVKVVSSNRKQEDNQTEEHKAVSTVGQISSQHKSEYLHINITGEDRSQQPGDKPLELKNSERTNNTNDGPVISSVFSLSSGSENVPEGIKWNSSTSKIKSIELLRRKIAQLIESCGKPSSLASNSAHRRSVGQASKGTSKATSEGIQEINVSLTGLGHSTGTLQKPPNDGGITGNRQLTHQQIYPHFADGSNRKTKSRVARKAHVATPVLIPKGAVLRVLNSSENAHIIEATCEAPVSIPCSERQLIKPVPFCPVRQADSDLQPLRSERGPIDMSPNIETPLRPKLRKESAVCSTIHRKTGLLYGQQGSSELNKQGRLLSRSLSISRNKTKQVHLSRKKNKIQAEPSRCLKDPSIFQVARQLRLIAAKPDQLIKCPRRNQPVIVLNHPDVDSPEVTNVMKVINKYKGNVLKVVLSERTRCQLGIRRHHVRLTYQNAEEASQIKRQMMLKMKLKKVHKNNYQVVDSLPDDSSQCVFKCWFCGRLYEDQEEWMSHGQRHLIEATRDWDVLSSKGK

T5: TetR-EYFP-ZNF518B^344–987 (human, UniProt Q9C0D4 344-987)
T5 sequence: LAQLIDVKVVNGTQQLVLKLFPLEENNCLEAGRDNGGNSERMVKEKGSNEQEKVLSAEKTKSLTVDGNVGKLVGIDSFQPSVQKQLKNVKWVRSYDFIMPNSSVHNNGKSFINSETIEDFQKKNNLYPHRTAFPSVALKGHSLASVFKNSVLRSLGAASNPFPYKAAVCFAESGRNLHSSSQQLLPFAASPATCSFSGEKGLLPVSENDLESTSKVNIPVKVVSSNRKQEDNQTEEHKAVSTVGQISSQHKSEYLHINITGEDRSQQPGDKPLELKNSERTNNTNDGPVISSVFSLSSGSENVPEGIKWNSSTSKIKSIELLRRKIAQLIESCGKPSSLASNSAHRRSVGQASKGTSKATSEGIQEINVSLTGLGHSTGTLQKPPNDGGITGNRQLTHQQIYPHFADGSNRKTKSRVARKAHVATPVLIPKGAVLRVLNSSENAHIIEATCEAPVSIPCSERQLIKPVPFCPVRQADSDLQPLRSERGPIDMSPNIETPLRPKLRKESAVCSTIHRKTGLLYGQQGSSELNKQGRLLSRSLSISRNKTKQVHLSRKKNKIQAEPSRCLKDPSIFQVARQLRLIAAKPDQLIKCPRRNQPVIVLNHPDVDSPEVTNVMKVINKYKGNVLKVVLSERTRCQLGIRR

T6: TetR-EYFP-ZNF518B^555–1074 (human, UniProt Q9C0D4 555-1074)
T6 sequence: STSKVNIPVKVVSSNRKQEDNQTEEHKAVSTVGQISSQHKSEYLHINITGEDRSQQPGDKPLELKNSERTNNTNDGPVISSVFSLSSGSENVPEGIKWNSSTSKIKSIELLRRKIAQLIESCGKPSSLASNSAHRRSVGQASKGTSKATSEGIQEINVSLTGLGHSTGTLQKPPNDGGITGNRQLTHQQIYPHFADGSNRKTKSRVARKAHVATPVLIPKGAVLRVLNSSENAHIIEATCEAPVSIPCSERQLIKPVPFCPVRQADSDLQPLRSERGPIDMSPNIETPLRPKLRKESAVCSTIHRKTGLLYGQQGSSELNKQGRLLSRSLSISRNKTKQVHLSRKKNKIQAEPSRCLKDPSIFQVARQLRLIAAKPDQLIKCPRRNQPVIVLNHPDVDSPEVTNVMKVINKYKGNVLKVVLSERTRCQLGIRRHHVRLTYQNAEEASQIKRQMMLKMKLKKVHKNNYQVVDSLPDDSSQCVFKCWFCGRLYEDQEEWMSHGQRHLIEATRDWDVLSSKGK

T7: TetR-EYFP-ZNF518B^878–987 (human, UniProt Q9C0D4 878-987)
T7 sequence: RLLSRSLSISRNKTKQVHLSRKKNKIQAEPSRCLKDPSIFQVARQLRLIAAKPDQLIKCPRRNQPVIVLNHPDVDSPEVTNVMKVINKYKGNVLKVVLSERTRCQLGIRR

T8: HAT-MBP-ZNF518B^770–987 (human, UniProt Q9C0D4 770-987)
T8 sequence: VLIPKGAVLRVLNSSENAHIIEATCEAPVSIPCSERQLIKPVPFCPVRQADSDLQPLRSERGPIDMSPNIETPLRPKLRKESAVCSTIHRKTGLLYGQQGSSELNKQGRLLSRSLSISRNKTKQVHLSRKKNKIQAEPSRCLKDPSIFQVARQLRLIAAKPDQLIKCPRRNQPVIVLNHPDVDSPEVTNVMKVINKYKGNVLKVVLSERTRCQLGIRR


What was measured:
[1] = target: T1, TetR-EYFP-ZNF518B^344–1074; assay: fluorescence microscopy-based interaction-trap
[2] = target: T2, TetR-EYFP-ZNF518B^770–987; assay: fluorescence microscopy-based interaction-trap
[3] = target: T3, TetR-EYFP-ZNF518B^878–1074; assay: fluorescence microscopy-based interaction-trap
TetR-EYFP-ZNF518B^WT = target: T4, TetR-EYFP-ZNF518B^WT; assay: fluorescence microscopy-based interaction-trap
[4] = target: T5, TetR-EYFP-ZNF518B^344–987; assay: fluorescence microscopy-based interaction-trap
[5] = target: T6, TetR-EYFP-ZNF518B^555–1074; assay: fluorescence microscopy-based interaction-trap
[6] = target: T7, TetR-EYFP-ZNF518B^878–987; assay: fluorescence microscopy-based interaction-trap
HAT-MBP-ZNF518B^770–987 = target: T8, HAT-MBP-ZNF518B^770–987; assay: pull-down

Binder | % of cells with recruitment to alphoid^tetO [1] [%] | % of cells with recruitment to alphoid^tetO [2] [%] | % of cells with recruitment to alphoid^tetO [3] [%] | % of cells with recruitment to alphoid^tetO (TetR-EYFP-ZNF518B^WT) [%] | % of cells with recruitment to alphoid^tetO [4] [%] | % of cells with recruitment to alphoid^tetO [5] [%] | % of cells with recruitment to alphoid^tetO [6] [%] | binding result (HAT-MBP-ZNF518B^770–987)
Halo-HP1β (natural protein, Halo Tag TMR ligand on the Halo tag) not shown | > 75 | > 75 | > 75 | 58 | > 75 | > 75 | > 75 | –
Halo-HP1γ (natural protein, Halo Tag TMR ligand on the Halo tag) not shown | > 75 | > 75 | > 75 | – | > 75 | > 75 | > 75 | –
His6-GST-HP1β (natural protein) not shown | – | – | – | – | – | – | – | binds
His6-GST-HP1γ (natural protein) not shown | – | – | – | – | – | – | – | binds
